{"source": "paper PMC3642240", "about": "“Cloning, Expression and Characterization of 3-Hydroxyisobutyrate Dehydrogenase from Pseudomonas denitrificans ATCC 13867” (PLoS ONE, 2013)", "proteins": {"B1": {"name": "3HIBDH-IV (Pseudomonas sp. ATCC 13867) (protein)", "chain": "MRIGFIGLGNMGGPMAANLLKAGFDLSVFDLSAKAVAAAVALGARALASPAEVARDDVEVIITMLPAAAHVKQVFLGEDGLLANVQPGVLLIDSSTIDPLNAREVSAAALAHGNPMLDAPVSGGTAGAAAGTLTFMVGGEPADFERARPALAAMGKNIVHCGGTGNGQVAKVANNLLLGISMIGVAEAMSLGVKLGMDADVLAGIINTSSGRCWSSEVNNPLTGAPAARGYSGGFGTDLMLKDLGLASEAARQVRQPVLLGALAQQLFQTFSNQGNGQLDFSAIVKLYEQG"}}, "test_in_all_cases": "purified protein", "key": {"purified protein [1]": {"substrate": "COC(=O)[C@@H](C)CO", "conditions": "2 mM NAD+, 100 mM Tris-HCl pH 9.0, 30 °C"}, "purified protein [2]": {"substrate": "O=C(O)CCO", "conditions": "2 mM NAD+, 100 mM Tris-HCl pH 9.0, 30 °C"}, "purified protein [3]": {"substrate": "CC(N)(CO)C(=O)O", "conditions": "2 mM NAD+, 100 mM Tris-HCl pH 9.0, 30 °C"}, "purified protein [4]": {"substrate": "NC(=O)c1ccc[n+]([C@@H]2O[C@H](COP(=O)(O)OP(=O)(O)OC[C@H]3O[C@@H](n4cnc5c(N)ncnc54)[C@H](O)[C@@H]3O)[C@@H](O)[C@H]2O)c1", "conditions": "3 mM 3-hydroxypropionate, NAD+ 0.025-4 mM, 100 mM Tris-HCl pH 9.0, 30 °C, varied: cofactor"}, "purified protein [5]": {"substrate": "C[C@@H](CO)C(=O)O", "conditions": "2 mM NAD+, 100 mM Tris-HCl pH 9.0, 30 °C"}}}
{"protein": "B1", "values": [{"measurement": "Km", "setting": "purified protein [1]", "result": "25142 ± 1667", "unit": "µM"}, {"measurement": "Vmax", "setting": "purified protein [1]", "result": 67, "unit": "µmol/min/mg"}, {"measurement": "kcat", "setting": "purified protein [1]", "result": "35.8 ± 3.3", "unit": "s⁻¹"}, {"measurement": "kcat/Km", "setting": "purified protein [1]", "result": "1430 ± 231", "unit": "M⁻¹ s⁻¹"}, {"measurement": "Km", "setting": "purified protein [2]", "result": "1055 ± 35", "unit": "µM"}, {"measurement": "Vmax", "setting": "purified protein [2]", "result": 20.2, "unit": "µmol/min/mg"}, {"measurement": "kcat", "setting": "purified protein [2]", "result": "10.8 ± 0.945", "unit": "s⁻¹"}, {"measurement": "kcat/Km", "setting": "purified protein [2]", "result": "10200 ± 699", "unit": "M⁻¹ s⁻¹"}, {"measurement": "Km", "setting": "purified protein [3]", "result": "24180 ± 3169", "unit": "µM"}, {"measurement": "Vmax", "setting": "purified protein [3]", "result": 12.4, "unit": "µmol/min/mg"}, {"measurement": "kcat", "setting": "purified protein [3]", "result": "6.62 ± 0.475", "unit": "s⁻¹"}, {"measurement": "kcat/Km", "setting": "purified protein [3]", "result": "275 ± 16", "unit": "M⁻¹ s⁻¹"}, {"measurement": "Km", "setting": "purified protein [4]", "result": "164 ± 37", "unit": "µM"}, {"measurement": "Vmax", "setting": "purified protein [4]", "result": 12.6, "unit": "µmol/min/mg"}, {"measurement": "kcat", "setting": "purified protein [4]", "result": "6.72 ± 0.126", "unit": "s⁻¹"}, {"measurement": "kcat/Km", "setting": "purified protein [4]", "result": "42400 ± 10900", "unit": "M⁻¹ s⁻¹"}, {"measurement": "Km", "setting": "purified protein [5]", "result": "178 ± 10", "unit": "µM"}, {"measurement": "Vmax", "setting": "purified protein [5]", "result": 151, "unit": "µmol/min/mg"}, {"measurement": "kcat", "setting": "purified protein [5]", "result": "80.8 ± 1.1", "unit": "s⁻¹"}, {"measurement": "kcat/Km", "setting": "purified protein [5]", "result": "455000 ± 33000", "unit": "M⁻¹ s⁻¹"}]}
